Reference: US6576753B1, “DNA encoding human leukotriene C4 synthase” (The Brigham and Women's Hospital, Inc., priority 1994, dated 2003)
Numbering of substitutions follows the chain as printed. Like-named read-outs stand apart in the source and are kept apart here.

Key:
LTC4 synthase [1] = molecular target: T1, LTC4 synthase (Homo sapiens, UniProt Q16873, Y93F); test: Enzyme kinetics of purified recombinant wild-type or mutant LTC4 synthase; format: biochemical
T1 construct: made in house; host or cells: COS-7 cells
T1 sequence (Q16873 1-150 Y93F): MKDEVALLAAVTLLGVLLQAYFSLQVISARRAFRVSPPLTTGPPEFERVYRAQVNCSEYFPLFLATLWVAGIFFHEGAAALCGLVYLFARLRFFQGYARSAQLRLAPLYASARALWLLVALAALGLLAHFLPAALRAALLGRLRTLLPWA
Method: (§1) PURIFICATION AND KINETIC ANALYSIS OF SELECTED EXPRESSED PROTEINS: Recombinant LTC4 synthases were purified by S-hexyl GSH agarose affinity chromatography (Lam et al., Eur. J. Biochem., 238:606, 1996). Solubilized microsomes were loaded onto a 2.5-cm×1.5-cm open bed of S-hexyl GSH resin equilibrated with 50 mM HEPES, 1 mM EDTA, 5 mM β-mercaptoethanol, 0.1% Triton X-102, 10% glycerol, pH 7.6 (Buffer A) at 4° C. The column was washed sequentially with 5 volumes each of buffer A/0.3 M NaCl/20 mM GSH/0.1% DOC, buffer A/2.5 mM S-hexyl GSH/2.5 mM S-octyl GSH/0.1% DOC, and buffer A/0.1% DOC; and the enzyme was eluted with 5 fractions of 1 volume each of 15 mM probenecid in buffer A containing 0.1% DOC. The enzyme was purified nearly to homogeneity as determined by the presence in silver stained SDS-PAGE gels of a predominant 18-kDa protein band with a minor 34-kDa band; only the 18-kDa band interacted with anti-LTC4 synthase antibody on immunoblot analysis. After sequential concentration and dilution with a Microsep 10K centrifugal concentrator (Filtron Technology Corp., Northborough, Mass.) to remove probenecid, the protein concentration was estimated by staining a SDS-PAGE gel of the purified enzyme and a standard amount of lysozyme resolved in the same gel with Coomassie blue dye and comparing their intensities.
(§2) To examine the enzyme kinetics of recombinant wild-type or mutant LTC4 synthase, 3-100 ng portions of purified enzyme were incubated in 200 μl of HEPES buffer, pH 7.6, containing 10 mM MgC'2 with either 20 μM LTA4-ME and various concentration of GSH or with 10 mM GSH and various concentrations of LTA4-ME for 2 min at room temperature. The reactions were terminated by the addition of 3 vol of methanol containing 200 ng PGB2. Samples were then analyzed for LTC4-ME by RP-HPLC.

LTC4 synthase [2] = test: as above; format: biochemical, human; conditions: purified recombinant enzyme
Method: as §1, §2

LTC4 synthase [3] = molecular target: T1, LTC4 synthase; test: Effect of pH on enzymatic conjugation by wild-type and mutant enzyme; format: biochemical; conditions: microsomal assay, 5-fold more Y93F
Method: The study the effect of pH on enzymatic conjugation by wild-type and mutant enzyme, 1-μl or 5-μl (Y93F) samples of solubilized COS cell microsomes were incubated with 10 μM LTA4-ME and 10 mM GSH in bis-Tris propane buffer containing 10 mM MgCl2 at various pH levels. The reactions were carried out at room temperature for 2 min and were stopped by the addition of 3 vol of methanol and 10 μl of acetic acid. Product generation was quantitated by RP-HPLC as described above.

LTC4 synthase [4] = test: Conjugation of LTA4-ME with GSH by solubilized microsomes of COS cells transfected with wild-type or mutant LTC4 synthase
Method: OF THE EXPRESSED PROTEINS: COS-7 cells were transfected with either wild-type LTC4 synthase cDNA or the mutated LTC4 synthase cDNA by DEAE-dextran transfection (Lam et al., Proc. Natl. Acad. Sci. USA., 91:7663, 1994). Three days after transfection, the cells were harvested by treatment with trypsin and suspended in microsomal buffer (50 mM HEPES buffer pH 7.9 containing 2 mM EDTA and 10 mM β-mercaptoethanol) at a concentration of 5×10^6 cells/ml. The cells were lysed by sonication with a Branson microtip sonicator (Danbury, Conn.) at a setting of 7. Cell lysates were centrifuged at 100,000×g for 60 min at 4° C., and the pellets (microsomes) were resuspended in microsomal buffer and were solubilized by the addition of 0.4% Triton X-102, 0.4% sodium deoxycholate (DOC), and 10% glycerol and stirring at 4° C. for 45 min.
The function of each mutant enzyme as well as the wild-type enzyme was first screened by the incubation of 1-10 μl of solubilized COS cell microsomes with 10 mM GSH and 20 μM LTA4-ME in 200 μl 50 mM HEPES buffer containing 10 mM MgCl2, pH 7.6. The reactions were carried out at room temperature for 10 min and stopped by the addition of 3 vol methanol containing 200 ng prostaglandin B2 (PGB2) as an internal standard. LTC4-ME levels in the samples were determined with high performance liquid chromatography (HPLC).
Reverse phase (RP)-HPLC was carried out with a model 126 dual pump system and model 167 scanning UV detector (Beckman Instruments) controlled by an Gateway 2000 P4D66 computer equipped with Beckman System Gold software. Samples were applied to a 5-μm 4.6×250-mm C18 Ultrasphere reverse phase column (Beckman Instruments) equilibrated with a solvent of methanol/acetonitrile/water/acetic acid (10:15:100:0.2, v/v), pH 6.0 (solvent A). Immediately after the sample was injected, the column was eluted at a flow rate of 1 ml/min with a programmed concave gradient (System Cold curve 6) to 20% solvent A and 80% solvent B (pure methanol) over 0.2 min with continuation isocratically for 5.8 min. Beginning at 6 min, solvent B was increased linearly to 100% over 0.2 min and was maintained at this level for 7 min more. The ultraviolet absorbance at 280 nm and the ultraviolet spectra were recorded simultaneously. The retention times for PGB2 and LTC4-ME were 7.4 and 8.9 min, respectively. LTC4-ME was quantitated by calculating the ratio of the peak area to the area of the internal standard PGB2.

LTC4 synthase [5] = molecular target: T2, LTC4 synthase (Homo sapiens, UniProt Q16873); test: Dose-response assay using MK886: conversion of LTA4-ME to LTC4-ME by lysates of transfected COS-7 cells; format: biochemical
T2 construct: expressed in transfected cells; host or cells: COS-7 cells (pcDNA3 clone from KG-1 library), cell lysate
T2 sequence (Q16873 1-150): T1 sequence (Q16873 1-150 Y93F) with F93Y
Method: After 2.8 min more, solvent B was increased linearly to 90% over 2 min and was maintained at this level for an additional 10 min. UV absorbance at 280 nm and the UV spectra were recorded simultaneously. The retention times for PGB2 and LTC4-ME were 8.5 and 10.1 min, respectively.
DOSE-RESPONSE ASSAY USING MK886: Cell lysates of the COS-7 cell transfectant containing SEQ ID NO.:1 were incubated with 20 micromolar LTA4-ME, 20 mM GSH, 5 mM MgCl2 in HEPES buffer (pH 7.6), in the presence of 0-10 micromolar MK886 for 10 minutes at room temperature. Reactions were stopped by addition of 2 volumes of methanol containing 200 ng PGB2. Samples were analyzed by RP-HPLC.

LTC4 synthase [6] = molecular target: T2, LTC4 synthase; conditions: high doses; Lam et al.; cited from earlier work

pH optimum of conjugation (LTC4 synthase [3])	IC50 (LTC4 synthase [5]; 20 μM LTA4-ME, COS cell lysates, read-out: IC50, inhibition of conversion of LTA4-ME to LTC4-ME) [µM]	inhibition of enzyme activity (LTC4 synthase [5]; at 10 μM)	IC50 (LTC4 synthase [5]; transfected COS cell lysates, read-out: ID50, inhibition of LTC4 synthase activity) [µM]	Molecule	reduction in Vmax (LTC4 synthase [1]; isolated recombinant enzyme, versus wild type)	catalytic efficiency relative to wild-type enzyme (LTC4 synthase [1]; purified recombinant enzyme)	Vmax LTC4-ME (LTC4 synthase [2]) [µmol/min/mg]	Km (LTC4 synthase [2]; read-out: Km GSH) [mM]	Km (LTC4 synthase [2]; read-out: Km LTA4-ME) [mM]	Function (LTC4 synthase [4]; COS cell microsome)	conjugation function of transfected COS cell microsomes (LTC4 synthase [4]; compared to wild-type construct)	Km (LTC4 synthase [4]; read-out: Km GSH, COS cell microsome) [mM]	Km (LTC4 synthase [4]; read-out: Km LTA4-ME, COS cell microsome) [mM]	inhibition of LTC4 synthase activity (LTC4 synthase [6])
A shift in the optimum to a higher pH	–	–	–	Y93F: LTC4 synthase point mutant	greater than 90%	1/260	1.4	9.9	0.0054	5 % of WT	associated with a reduction in function	10	0.02	–
–	< 3	more than 90%	~3	CC(C)c1ccc2c(c1)c(SC(C)(C)C)c(CC(C)(C)C(=O)O)n2Cc1ccc(Cl)cc1 [MK-886]	–	–	–	–	–	–	–	–	–	could also inhibit LTC4 synthase activity when administered at high doses
